Measurements: article PMC9536202

What was measured:
MakA^W243D = assay: SEC
[1] = biological target: Motility associated killing factor A (MakA), wild type; assay: SEC

Substance | percent oligomer (MakA^W243D) [%] | percent monomer [1] [%] | percent oligomer [1] [%]
MakA^W243D (natural protein) | 100 |  | 
Motility associated killing factor A (MakA), wild type (natural protein) |  | 80 | 20
